Experiments:
[1] = system: TALE-(CV)3-VP64 (Xanthomonas (TALE scaffold)?); experiment: cell_activity; conditions: HEK293T
[2] = system: TALE-(FT)3-VP64 (Xanthomonas (TALE scaffold)?); experiment: cell_activity; conditions: HEK293T
[3] = system: TALE-(CP)3-VP64 (Xanthomonas (TALE scaffold)?); experiment: cell_activity; conditions: HEK293T
[4] = system: TALE-(NP)3-VP64 (Xanthomonas (TALE scaffold)?); experiment: cell_activity; conditions: HEK293T
[5] = system: TET1 TALE-VP64 (RG) (Xanthomonas (TALE scaffold)?); experiment: cell_activity; conditions: 5mC at CpG (cellular, high); HeLa
[6] = system: TALE-HD (MAPK6 target) (Xanthomonas (TALE scaffold)?); experiment: inhibition; conditions: MspI protection, 25 C
[7] = 6mA at bases 7-9 of the site, forward strand

CTGGCCAAATACGTA (double strand) [6mA reporter]
activity (fold EGFP induction) [1, 7]: > 5 | activity (fold EGFP induction) [2, 7]: > 5 | activity (fold EGFP induction) [3, 7]: > 5 | activity (fold EGFP induction) ([4]; 6mA at bases 7-9 of the site, forward strand, strongest of the 6mA-specific RVDs): > 5

CTGGCCAAATACGTA (double strand) [A reporter]
6mA/A selectivity ratio [1]: > 5 6mA/A ratio | 6mA/A selectivity ratio [2]: > 5 6mA/A ratio | 6mA/A selectivity ratio [3]: > 5 6mA/A ratio | 6mA/A selectivity ratio [4]: > 5 6mA/A ratio

TAGGCGTCCTCCGCGAC (double strand) [TET1 promoter, HeLa (highly methylated)]
activity (fold induction) [5]: 10

TTCAGCTGGATCCCGGGAGGAGCGGATATAACCAGG (double strand) [MAPK6 probe, 5hmC]
binding signal (fold higher Ki than for C) ([6]; 5hmC at second C of the MspI site CCGG (C14)): > 30

TTCAGCTGGATCCCGGGAGGAGCGGATATAACCAGG (double strand) [MAPK6 probe, 5mC]
binding signal (fold higher Ki than for C) ([6]; 5mC at second C of the MspI site CCGG (C14)): > 30
